# B1: Hairpin Ribozyme (parent)
# chain: GUCCUCUUUCACGUGCGCGUGAAAGAGAGAAGUGAACCAGAGAAACACACGUUGUGGUAUAUUACCUGGUA
# Variants of: B1
# Experiment: self-cleavage, relative activity (ratio to wild type); higher = more cleavage; co-transcriptional
row,Variant,self-cleavage
1,A23G G25U,0.357
2,A23G G25A,0.413
3,A22U A39U,0.359
4,A23G A26G,0.648
5,A23G A26C,0.524
6,A23G U52G,0.78
7,A23C A71U,0.832
8,A23G A31G,0.416
9,G21U A36G,1.07
10,G21U A36C,0.463
11,G21U A36U,0.661
12,A23G A43C,0.169
13,A22G U67A,0.239
14,A22G U67C,0.231
15,A22G U67G,0.247
16,A22U A49U,0.293
17,G21C U60G,0.55
18,G21U A31C,0.0844
19,G21U A31G,0.325
20,A22U U62A,0.161
21,A22U U62C,0.127
22,A22C G25C,0.182
23,A22C G25U,0.17
24,A23C A31U,0.179

row,Variant,self-cleavage
1,A23C A31C,0.185
2,A22G C48A,0.16
3,A22G C48G,0.136
4,A23C A59C,0.193
5,A23C A59G,0.143
6,G21C A44C,0.0985
7,G21C A44G,0.194
8,A22C G57A,0.119
9,G21C C37G,0.425
10,A23U A28G,0.956
11,A22G A31U,0.226
12,A22U U55G,0.298
13,A22C A49C,0.264
14,A23G A41U,1.09
15,A23G A41C,1.19
16,A22U C50A,0.211
17,A22U C50U,0.342
18,A22U A45U,0.143
19,A23C U60G,0.61
20,A23G U33C,0.0496
21,A22U A59G,0.117
22,G21U C50A,0.194
23,G21U G56C,0.116
24,A22U A43G,0.237

row,Variant,self-cleavage
1,G21U G57A,0.148
2,G21U G57U,0.224
3,A23C A44G,0.056
4,A23C A44U,0.129
5,A22G A26U,0.528
6,A22G G68U,0.362
7,A22G G68C,0.182
8,A22G G68A,0.307
9,G21U A39U,0.293
10,G21U G69C,0.293
11,G21U G69U,0.211
12,G21U G69A,0.374
13,G21U U60G,0.48
14,G21U U60A,0.851
15,A23C U53G,0.562
16,A23C U53C,0.702
17,A22C U63C,0.203
18,G21C U58G,0.647
19,G21U C46A,0.0942
20,G21U C46U,0.128
21,A22G A64U,0.173
22,G21U C38G,0.167
23,G21U C38U,0.357
24,A23G A64C,0.2

row,Variant,self-cleavage
1,A22U A23U,0.842
2,A23C C37A,0.18
3,G21C G68U,0.289
4,A22G A47C,0.27
5,A23G C37G,0.311
6,A23G C37A,0.287
7,A23C U52G,0.489
8,A23C U52C,0.77
9,G21C G57U,0.189
10,G21U U62G,0.156
11,A23G A30G,0.211
12,A22U G40U,0.115
13,A22U G40A,0.218
14,G21C G69A,0.419
15,G21C A43U,0.0826
16,A23G A24G,0.715
17,A22G G29C,0.129
18,A22U A31G,0.589
19,A22U A31U,0.12
20,G21U G32U,0.1
21,A22G A71C,1.28
22,A22U A28G,1.13
23,A23G C50G,0.153
24,A22U G69U,0.259

row,Variant,self-cleavage
1,A22C A26U,0.429
2,A22G A59C,0.122
3,A22C U58A,0.68
4,A23U A24U,0.737
5,G21U C66U,0.427
6,G21C U70G,0.658
7,A22G A44G,0.193
8,A22G A44U,0.123
9,G21U C65A,0.996
10,G21U A41U,1.24
11,G21U A41C,1.12
12,A23C U67A,0.211
13,A23C U67C,0.249
14,A22C A41C,1.22
15,G21U A23C,0.595
16,A22G U63C,0.245
17,A22U U70A,0.768
18,A22U U70G,0.674
19,A23G A35C,1
20,A23G A35U,0.626
21,A22U A61G,0.155
22,A22U A61U,0.198
23,A22U A61C,0.171
24,G21U A24U,0.78

row,Variant,self-cleavage
1,A23C A24C,0.718
2,A23C A24G,0.85
3,A23G G51C,0.91
4,A23G G51A,0.781
5,G21U U58A,0.493
6,A23G U67G,0.18
7,A22G U55A,0.318
8,A23C C50A,0.318
9,A23C C50G,0.259
10,A23C C50U,0.373
11,A22G C37G,0.291
12,A23C G56A,0.187
13,A22U C46G,0.166
14,G21U A64C,0.149
15,G21U G34U,1.24
16,A22U U33A,0.172
17,A23C A43U,0.115
18,A23C A35G,0.942
19,A22C A30G,0.179
20,A22C A30U,0.0473
21,G21C G25U,0.399
22,G21C G25A,0.165
23,A22G A41G,0.811
24,G21C U52A,0.909

row,Variant,self-cleavage
1,G21C U52C,0.971
2,G21C C66G,0.159
3,A22G C65U,0.395
4,G21C G27A,0.186
5,A22U A47C,0.345
6,A22U A47U,0.202
7,A22U A26G,0.743
8,A22C G27U,0.411
9,A22G C46A,0.171
10,A22C A44C,0.0803
11,G21C A59G,0.206
12,G21C A59U,0.204
13,A22G A28G,0.735
14,A22G G54A,0.428
15,A22U A36G,0.849
16,A22U A36C,0.589
17,A22C A61G,0.123
18,A22C G68C,0.247
19,G21C A36G,0.779
20,A23G G68C,0.101
21,A23G G68U,0.198
22,A23G G68A,0.311
23,A23G G42C,0.33
